Assay [1] addresses monomeric wild-type RBD (319-541) of the SARS-CoV-2 spike (S)-protein (SARS-CoV-2 (Wuhan-Hu-1 isolate)) (UniProt P0DTC2). Nature of the assay: SEC. (In general: Size exclusion chromatography separates by hydrodynamic size, large species first.)
Assay [2] concerns the target tRBD-TA, truncated RBD (319-537) with T323 mutated to alanine (SARS-CoV-2 (Wuhan-Hu-1 isolate)) (UniProt P0DTC2). Nature of the assay: SEC.

The term stoichiometry N denotes a count of units in the complex or per binding partner. In assay [1], “monomeric wild-type RBD (319-541) of the SARS-CoV-2 spike (S)-protein (from UniProt P0DTC2 319-541) (domain or fragment)” came in with a proportion of dimer in the preparation of 20 to 25% and a stoichiometry N of 2.
In assay [2], “tRBD-TA, truncated RBD (319-537) with T323 mutated to alanine (from UniProt P0DTC2 319-537) (domain or fragment)” had a percent of the protein dimerized after 7 days at 25°C of 10% and a proportion of dimer in the preparation of 25 to 28%.

These data come from article PMC9011732.
